For assay [1], the target named is Nluc-Y1R-eYFP_N1 C113^3.25A (human) (UniProt P25929). Description: FRET or BRET; NanoBRET ligand binding: membrane preparations of HEK293 cells with Nluc-Y1/2R-eYFP, TAMRA-labeled peptide titrated, 10 min at room temperature, HBSS with 20 mM HEPES pH 7.4, 0.1% BSA; unspecific binding (excess unlabeled NPY or antagonist) subtracted; biphasic fit.
Assay [2] deals with Nluc-Y2R-eYFP_N1 (wild-type neuropeptide Y2 receptor) (human) (UniProt P49146). Described as above.
For assay [3], the target named is FLAG-CRF1R-eGFP_N1 (wild-type corticotropin-releasing factor receptor 1, R2 isoform) (human (by the printed accession)) (UniProt P34998). Briefly: FRET or BRET; arrestin recruitment in live HEK293 cells: Nluc-arr3 (donor) and FLAG-CRF1R-eGFP (acceptor), stimulated with CRF (up to 10 µM).
Assay [4] deals with FLAG-CRF1R-eGFP_N1 C188^3.29A (human (by the printed accession)) (UniProt P34998). Described as above.
In assay [5] the target is MOR-eYFP_pVitro2 (wild-type µ-type opioid receptor) (UniProt P35372). Briefly: FRET or BRET; arrestin recruitment in live HEK293 cells: Nluc-arr3 (donor) and MOR-eYFP (acceptor), stimulated with β-endorphin (0.01 nM to 10 µM).
For assay [6] the target is unchanged. Briefly: FRET or BRET; arrestin recruitment in live HEK293 cells: Nluc-arr3 (donor) and MOR-eYFP (acceptor), stimulated with endomorphin-1 (0.01 nM to 10 µM).
For assay [7], the target named is AT1R-eYFP_N1 (wild-type angiotensin II type 1 receptor) (UniProt P30556). Briefly: FRET or BRET; arrestin recruitment in live HEK293 cells: Nluc-arr3 (donor) and AT1R-eYFP (acceptor), stimulated with agonist peptide (angiotensin II; 0.01 nM to 10 µM).
Assay [8] concerns the target HA-Y2R-eYFP_N1 (wild-type neuropeptide Y2 receptor) (human) (UniProt P49146). Description: FRET or BRET; arrestin recruitment in live HEK293 cells: Nluc-arr3 (donor) and receptor-eYFP (acceptor) co-transfected, stimulated with NPY (0.01 nM to 10 µM), HBSS with 20 mM HEPES pH 7.4, read 5, 10 and 15 min after stimulation.
In assay [9] the target is Y1R-eYFP_N1 (wild-type neuropeptide Y1 receptor) (human) (UniProt P25929). The description is as above.
For assay [10], the target named is HA-Y2R-eYFP_N1 C123^3.25A (human) (UniProt P49146).
The target in assay [11] is HA-Y2R-eYFP_N1 C203^45.50A (human) (UniProt P49146).
The target in assay [12] is Y1R-eYFP_N1 C113^3.25A (human) (UniProt P25929).
The target of assay [13] is Y1R-eYFP_N1 C198^45.50A (human) (UniProt P25929).

Where only a bound is given, the exact number is not on record here.

Here are results for three substances from publication PMC10419011.

Nluc-tagged bovine arrestin3, sequence (P32120 whole entry): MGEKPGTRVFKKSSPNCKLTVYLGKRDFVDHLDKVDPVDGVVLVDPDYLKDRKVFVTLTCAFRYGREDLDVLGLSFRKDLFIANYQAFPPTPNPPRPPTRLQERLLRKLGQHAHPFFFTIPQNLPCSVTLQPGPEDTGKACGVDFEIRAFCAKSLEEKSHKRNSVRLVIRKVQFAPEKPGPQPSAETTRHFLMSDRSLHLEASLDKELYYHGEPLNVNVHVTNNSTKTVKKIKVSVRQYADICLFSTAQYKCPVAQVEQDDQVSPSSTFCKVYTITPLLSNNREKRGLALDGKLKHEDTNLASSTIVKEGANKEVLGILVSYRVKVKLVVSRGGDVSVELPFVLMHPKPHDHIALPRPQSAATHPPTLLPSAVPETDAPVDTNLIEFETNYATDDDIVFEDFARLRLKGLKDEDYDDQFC
AT1R-eYFP_N1 (wild-type angiotensin II type 1 receptor), sequence (P30556 whole entry): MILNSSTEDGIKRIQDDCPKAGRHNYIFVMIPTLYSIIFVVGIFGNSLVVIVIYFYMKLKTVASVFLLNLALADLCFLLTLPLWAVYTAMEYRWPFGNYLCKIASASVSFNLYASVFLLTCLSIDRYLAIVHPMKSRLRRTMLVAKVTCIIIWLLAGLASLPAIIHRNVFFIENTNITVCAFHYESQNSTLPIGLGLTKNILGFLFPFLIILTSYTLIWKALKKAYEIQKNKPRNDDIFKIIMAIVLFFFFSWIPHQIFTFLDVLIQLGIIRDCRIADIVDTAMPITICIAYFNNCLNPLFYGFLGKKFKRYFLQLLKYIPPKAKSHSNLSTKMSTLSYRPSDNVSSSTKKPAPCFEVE
Y1R-eYFP_N1 (wild-type neuropeptide Y1 receptor) (human), sequence (P25929 whole entry): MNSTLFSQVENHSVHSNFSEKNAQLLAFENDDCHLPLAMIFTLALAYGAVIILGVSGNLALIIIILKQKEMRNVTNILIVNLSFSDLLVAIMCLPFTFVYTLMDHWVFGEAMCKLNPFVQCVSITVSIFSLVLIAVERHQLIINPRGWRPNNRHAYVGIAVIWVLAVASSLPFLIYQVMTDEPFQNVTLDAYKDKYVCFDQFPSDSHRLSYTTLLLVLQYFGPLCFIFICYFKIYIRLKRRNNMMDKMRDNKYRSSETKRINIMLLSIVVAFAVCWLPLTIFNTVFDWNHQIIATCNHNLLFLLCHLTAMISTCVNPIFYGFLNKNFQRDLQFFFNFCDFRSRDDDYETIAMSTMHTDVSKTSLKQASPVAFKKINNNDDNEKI
Y1R-eYFP_N1 C198^45.50A (human), sequence (P25929 whole entry C198A): as the sequence (P25929 whole entry) above, with C198A counted along it
FLAG-CRF1R-eGFP_N1 (wild-type corticotropin-releasing factor receptor 1, R2 isoform) (human (by the printed accession)), sequence (P34998 24-415): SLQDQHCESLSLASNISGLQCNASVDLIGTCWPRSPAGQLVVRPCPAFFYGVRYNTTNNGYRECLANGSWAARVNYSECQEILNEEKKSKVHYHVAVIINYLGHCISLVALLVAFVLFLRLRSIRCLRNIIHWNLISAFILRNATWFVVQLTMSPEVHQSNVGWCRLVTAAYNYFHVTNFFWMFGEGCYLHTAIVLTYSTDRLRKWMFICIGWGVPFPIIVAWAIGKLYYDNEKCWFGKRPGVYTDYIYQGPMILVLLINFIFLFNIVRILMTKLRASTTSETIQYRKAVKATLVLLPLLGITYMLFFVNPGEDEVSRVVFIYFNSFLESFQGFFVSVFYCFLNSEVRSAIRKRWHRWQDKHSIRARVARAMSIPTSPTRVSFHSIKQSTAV
Nluc-Y1R-eYFP_N1 C113^3.25A (human), sequence (P25929 whole entry C113A): as the sequence (P25929 whole entry) above, with C113A counted along it
Y1R-eYFP_N1 C113^3.25A (human), sequence (P25929 whole entry C113A): as the sequence (P25929 whole entry) above, with C113A counted along it
FLAG-CRF1R-eGFP_N1 C188^3.29A (human (by the printed accession)), sequence (P34998 24-415 C188A): as the sequence (P34998 24-415) above, with C165A counted along it

For K^18-TAMRA-NPY (peptide), the fold shift in Kd against wild-type Y1R in assay [1] turned out to be 7 fold. For the same substance, in assay [2], the Kd of the high-affinity state was determined as 2.3 nM and the Kd of the low-affinity state came to 267 nM.

In [3], “Nluc-tagged bovine arrestin3 (from UniProt P32120 1-420) (natural protein)” displayed an EC50 of the agonist CRF for arrestin3 recruitment of 37 nM. In addition, in assay [4], the fold shift in the agonist's EC50 for arrestin3 recruitment against wild-type CRF1R is 8 fold. The substance further came in with an EC50 of the agonist β-endorphin for arrestin3 recruitment in assay [5] of more than 3000 nM. Also, the EC50 of the agonist endomorphin-1 for arrestin3 recruitment in [6] stood at 375 nM. The same substance showed an EC50 of the agonist for arrestin3 recruitment in [7] of 3.6 nM. The EC50 of the agonist NPY for arrestin3 recruitment in assay [8] worked out at 96 nM; in assay [9], 8 nM.

“neuropeptide Y (NPY) (from UniProt P01303 29-64)”: the cAMP reporter gene assay (Gi/o pathway): shift of the EC50 of NPY against wild-type Y2R; full activation at 10 µM NPY in assay [10] and in [11] was 10000 fold in each case. The inositol monophosphate accumulation via chimeric G-protein: shift of EC50 against wild-type Y1R (41% loss of Emax) in assay [12] turned out to be 26 fold. In addition, the inositol monophosphate accumulation via chimeric G-protein: shift of EC50 against wild-type Y1R (57% loss of Emax) in assay [13] came out at 50 fold.
